B1: bovine holo-transferrin: commercial iron-bound bovine holo-transferrin (Sigma) (protein, UniProt Q29443 20-704, looked up)
Serotransferrin: DPERTVRWCTISTHEANKCASFRENVLRILESGPFVSCVKKTSHMDCIKAISNNEADAVTLDGGLVYEAGLKPNNLKPVVAEFHGTKDNPQTHYYAVAVVKKDTDFKLNELRGKKSCHTGLGRSAGWNIPMAKLYKELPDPQESIQRAAANFFSASCVPCADQSSFPKLCQLCAGKGTDKCACSNHEPYFGYSGAFKCLMEGAGDVAFVKHSTVFDNLPNPEDRKNYELLCGDNTRKSVDDYQECYLAMVPSHAVVARTVGGKEDVIWELLNHAQEHFGKDKPDNFQLFQSPHGKDLLFKDSADGFLKIPSKMDFELYLGYEYVTALQNLRESKPPDSSKDECMVKWCAIGHQERTKCDRWSGFSGGAIECETAENTEECIAKIMKGEADAMSLDGGYLYIAGKCGLVPVLAENYKTEGESCKNTPEKGYLAVAVVKTSDANINWNNLKDKKSCHTAVDRTAGWNIPMGLLYSKINNCKFDEFFSAGCAPGSPRNSSLCALCIGSEKGTGKECVPNSNERYYGYTGAFRCLVEKGDVAFVKDQTVIQNTDGNNNEAWAKNLKKENFEVLCKDGTRKPVTDAENCHLARGPNHAVVSRKDKATCVEKILNKQQDDFGKSVTDCTSNFCLFQSNSKDLLFRDDTKCLASIAKKTYDSYLGDDYVRAMTNLRQCSTSKLLEACTFHKP
modifications: iron-bound
B2: bovine apo-transferrin: iron-free bovine apo-transferrin (protein, UniProt Q29443 20-704, looked up)
Serotransferrin: B1 Serotransferrin
modifications: iron-free

Test system: bax/bak-DKO MEFs
Test: Death-inducing activity of transferrin and L-Gln under amino acid starvation
Format: cell-based, mouse
Conditions: with smFBS, 12 hrs
Protocol: To induce cell death, 80%-confluent cells were washed with PBS twice, and then cultured in amino acid-free medium, with specific factors added as indicated in individual experiments. Cell death was analyzed by propidium iodide (PI) staining coupled with microscopy or flow cytometry. Alternatively, cell viability was determined using the CellTiter-Glo luminescent Cell Viability Assay (Promega). In assays using WT MEFs, viability was calculated by normalizing ATP levels to cells treated with amino acid-starvation in the presence of 10% (v/v) diFBS, while in assays using bax/bak-DKO MEFs, ATP levels were normalized to cells treated with amino acid and FBS double starvation.

Molecule | induction of cell death in the presence of smFBS
B1 | induced robust cell death
B2 | does not possess killing activity
